Results reported in patent US20140087995A1 (published 2014).
One block for each binder: values may come before it. Numbered stars: 1 amine (or outer) side, 2 acyl side, 3 side chain; on linkers, the order of the positions; unused ones are H or OH. Bridge positions count the residues as written; N and C are the ends. Side chains are listed from the residue outwards. Ends that are not written are not given here. * marks the point of attachment. C20 diacid = O=C(O)CCCCCCCCCCCCCCCCCCC(=O)*; γGlu = O=C(O)[C@H](CCC(=O)[*:2])N[*:1]; AEEA = NCCOCCOCC(=O)O

Assays:
[1] = molecular target: T1, human calcitonin receptor (human, UniProt P30988 25-474); assay: ratio IC50 human calcitonin receptor / IC50 human amylin receptor (Assays VII and V)
T1 construct: whole, on cells; Used as membranes prepared from the transfected cells (Assay VII); also called hCTR; hCT
T1 sequence (looked up): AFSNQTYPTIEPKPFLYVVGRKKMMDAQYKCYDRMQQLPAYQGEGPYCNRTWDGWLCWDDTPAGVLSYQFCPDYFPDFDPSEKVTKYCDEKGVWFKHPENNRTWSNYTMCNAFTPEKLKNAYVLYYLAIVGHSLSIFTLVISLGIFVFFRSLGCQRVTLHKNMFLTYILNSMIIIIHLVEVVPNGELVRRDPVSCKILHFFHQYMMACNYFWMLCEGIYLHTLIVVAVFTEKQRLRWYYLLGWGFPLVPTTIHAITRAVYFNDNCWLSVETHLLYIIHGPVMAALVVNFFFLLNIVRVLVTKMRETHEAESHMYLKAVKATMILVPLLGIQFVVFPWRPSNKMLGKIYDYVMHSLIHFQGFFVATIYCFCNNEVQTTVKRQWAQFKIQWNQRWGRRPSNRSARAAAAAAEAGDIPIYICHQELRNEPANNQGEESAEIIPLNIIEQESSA
Procedure: (§1) The resulting pellet was resuspended, homogenized and centrifuged (20.000 rpm, 15 min) in a buffer containing 20 mM Na-HEPES and 0.1 mM EDTA (pH 7.4, buffer 2). The resulting pellet was resuspended in buffer 2 and protein concentration was measured (BCA protein Assay, Pierce). The homogenate was kept cold during the whole procedure. The membranes were kept at −80° C. until use. The assay was performed in a 384 well Optiplate (PerkinElmer) in a total volume of 40 ul. Membranes were mixed with SPA beads. Final concentration of membranes 35 ng/μL final and SPA beads was 0.05 mg/well. Test-compounds were dissolved in DMSO and further diluted in assay buffer (50 mM Hepes, pH 7.4, 1 mM CaCl2, 5 mM MgCl₂, 0.1% OA and 0.02% Tween20). […] The final mixture was incubated with shaking at 400 rpm for 120 min at 25° C. prior to centrifugation (1500 rpm, 10 min). Samples were analyzed on TopCounter™ (Packard). The IC₅₀ was calculated using (one site binding competition analysis) GraphPad Prism5 as a measure of receptor affinity.
(§2) Membranes were prepared in the following way; the cells were rinsed with PBS and incubated with Versene for approximately 5 min before harvesting. The cells were flushed with PBS and the cell-suspension was centrifuged for 5 min at 1000 rpm. Cells were homogenized (Ultrathurrax) in a buffer containing 20 mM Na-HEPES and 10 mM EDTA (pH 7.4) and centrifuged at 20.000 rpm for 15 min. The resulting pellet was resuspended, homogenized and centrifuged (20.000 rpm, 15 min) in a buffer containing 20 mM Na-HEPES and 0.1 mM EDTA (pH 7.4, buffer 2). The resulting pellet was resuspended in buffer 2 and protein concentration was measured (BCA protein Assay, Pierce). The homogenate was kept cold during the whole procedure. The membranes were kept at −80° C. until use. Assay was performed in a 384 well Optiplate (PerkinElmer) in a total volume of 40 ul. Membranes were mixed with SPA beads.

[2] = molecular target: T2, rat amylin receptor (rat calcitonin receptor + rat RAMP 3) (rat, UniProt P32214 25-516; Q9JJ73 23-147); assay: SPA competition with 125I-rat amylin, membranes of BHK cells with rat CTR + rat RAMP3 (Assay VI)
T2 construct: whole, on cells; Used as membranes prepared from BHK tk'ts 13 cells transiently transfected with rat calcitonin receptor and rat RAMP 3 (Assay VI); also called rAmylin-R; rat amylin 3(a) receptor
T2 sequence (looked up) 1: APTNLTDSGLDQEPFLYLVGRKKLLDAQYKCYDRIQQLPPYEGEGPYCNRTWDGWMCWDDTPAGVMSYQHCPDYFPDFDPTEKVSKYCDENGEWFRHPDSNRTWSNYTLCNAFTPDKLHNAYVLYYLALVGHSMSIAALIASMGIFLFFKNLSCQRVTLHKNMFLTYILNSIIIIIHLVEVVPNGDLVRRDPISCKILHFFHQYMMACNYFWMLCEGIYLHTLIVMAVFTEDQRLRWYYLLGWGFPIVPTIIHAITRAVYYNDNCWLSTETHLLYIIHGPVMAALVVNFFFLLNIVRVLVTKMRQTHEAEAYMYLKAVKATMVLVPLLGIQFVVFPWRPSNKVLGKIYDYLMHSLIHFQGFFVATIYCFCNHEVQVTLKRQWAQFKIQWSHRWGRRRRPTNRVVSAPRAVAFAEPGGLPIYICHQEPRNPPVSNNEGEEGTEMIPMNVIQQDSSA
T2 sequence (looked up) 2: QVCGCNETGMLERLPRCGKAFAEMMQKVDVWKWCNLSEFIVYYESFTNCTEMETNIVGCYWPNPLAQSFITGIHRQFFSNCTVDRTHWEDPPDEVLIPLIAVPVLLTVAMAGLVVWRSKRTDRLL
Procedure: The binding assay was performed using scintillation proximity assay (SPA) beads (RPNQ0001) from PerkinElmer and cell membranes from the Amylin 3(a)/CRE-luc cells (as described in Assay (II)) were used. Membranes were prepared in the following way; the cells were rinsed with PBS and incubated with Versene for approximately 5 min before harvesting. The cells were flushed with PBS and the cell-suspension was centrifuged for 5 min at 1000 rpm. Cells were homogenized (ultrathurrax) in a buffer containing 20 mM Na-HEPES and 10 mM EDTA (pH 7.4) and centrifuged at 20.000 rpm for 15 min. The resulting pellet was resuspended, homogenized and centrifuged (20.000 rpm, 15 min) in a buffer containing 20 mM Na-HEPES and 0.1 mM EDTA (pH 7.4, buffer 2). The resulting pellet was resuspended in buffer 2 and protein concentration was measured (BCA protein Assay, Pierce). The homogenate was kept cold during the whole procedure. The membranes were kept at −80° C. until use. The assay was performed in a 384 well Optiplate (PerkinElmer) in a total volume of 40 ul. Membranes were mixed with SPA beads. Final concentration of membranes 35 ng/μL final and SPA beads was 0.05 mg/well. Test-compounds were dissolved in DMSO and further diluted in assay buffer (50 mM Hepes, pH 7.4, 1 mM CaCl2, 5 mM MgCl₂, 0.1% OA and 0.02% Tween20). […] The final mixture was incubated with shaking at 400 rpm for 120 min at 25° C. prior to centrifugation (1500 rpm, 10 min). Samples were analyzed on TopCounter™ (Packard). The IC₅₀ was calculated using (one site binding competition analysis) GraphPad Prism5 as a measure of receptor affinity.
Cells were grown in DMEM with 10% FBS and 1% Pen/Strep. Approximately 48 hours after transfection, the cells were harvested and membranes were prepared.

rat calcitonin receptor [3] = molecular target: T3, rat calcitonin receptor (rat, UniProt P32214 25-516); assay: IC50 on rat CTR divided by IC50 on rat amylin receptor (Assays VIII/VI)
T3 construct: whole, on cells; Used as membranes prepared from BHK tk'ts 13 cells transiently transfected with the rat calcitonin receptor (Assay VIII); also called rCTR; rat calcitonin (a) receptor
T3 sequence (looked up): T2 sequence (looked up) 1

rat calcitonin receptor [4] = molecular target: T3, rat calcitonin receptor; assay: SPA competition with 125I-calcitonin, membranes of BHK cells with rat CTR (Assay VIII)
[5] = molecular target: T4, human calcitonin receptor (human, UniProt P30988 25-474); assay: IC50 on human CTR divided by IC50 on human amylin receptor (Assays VII/V)
T4 construct: whole, on cells; Used as membranes prepared from a BHK tk'ts 13 cell line stably transfected with the human calcitonin receptor (Assay VII); also called hCTR; hCT
T4 sequence (looked up): T1 sequence (looked up)
Procedure: as §1, §2

- Ratio hCT/hAmylin binding [1]: 26
B1: N^α1 N^α1-[(4S)-4-carboxy-4-[[(4S)-4-carboxy-4-(19-carboxynonadecanoylamino)butanoyl]amino]butanoyl]-[Glu14,Arg17,Pro21,Pro27]-h-amylin (peptide)
peptide: {C20 diacid-γGlu-γGlu}-KCNTATCATQRLAEFLRHSSPNFGAIPSSTNVGSNTY-NH2
modifications: disulfide 2-7
SMILES: CC[C@H](C)[C@H](NC(=O)[C@H](C)NC(=O)CNC(=O)[C@H](Cc1ccccc1)NC(=O)[C@H](CC(N)=O)NC(=O)[C@@H]1CCCN1C(=O)[C@H](CO)NC(=O)[C@H](CO)NC(=O)[C@H](Cc1c[nH]cn1)NC(=O)[C@H](CCCNC(=N)N)NC(=O)[C@H](CC(C)C)NC(=O)[C@H](Cc1ccccc1)NC(=O)[C@H](CCC(=O)O)NC(=O)[C@H](C)NC(=O)[C@H](CC(C)C)NC(=O)[C@H](CCCNC(=N)N)NC(=O)[C@H](CCC(N)=O)NC(=O)[C@@H](NC(=O)[C@H](C)NC(=O)[C@@H]1CSSC[C@H](NC(=O)[C@H](CCCCN)NC(=O)CC[C@H](NC(=O)CC[C@H](NC(=O)CCCCCCCCCCCCCCCCCCC(=O)O)C(=O)O)C(=O)O)C(=O)N[C@@H](CC(N)=O)C(=O)N[C@@H]([C@@H](C)O)C(=O)N[C@@H](C)C(=O)N[C@@H]([C@@H](C)O)C(=O)N1)[C@@H](C)O)C(=O)N1CCC[C@H]1C(=O)N[C@@H](CO)C(=O)N[C@@H](CO)C(=O)N[C@H](C(=O)N[C@@H](CC(N)=O)C(=O)N[C@H](C(=O)NCC(=O)N[C@@H](CO)C(=O)N[C@@H](CC(N)=O)C(=O)N[C@H](C(=O)N[C@@H](Cc1ccc(O)cc1)C(N)=O)[C@@H](C)O)C(C)C)[C@@H](C)O
notes: Derivative of human amylin; also called compound 15

- IC50 [2]: 0.11 nM
- Ratio rCT/rAmylin binding (rat calcitonin receptor [3]): 69.1
- IC50 (rat calcitonin receptor [4]): 7.6 nM
- Ratio hCT/hAmylin binding [5]: 34.7
B2: N^ε1-[2-[2-[2-(19-carboxynonadecanoylamino)ethoxy]ethoxy]acetyl]-[Arg17,Pro21,Pro27]-h-amylin (peptide)
peptide: K([AEEA-C20 diacid])CNTATCATQRLANFLRHSSPNFGAIPSSTNVGSNTY-NH2
modifications: disulfide 2-7; N-terminus assumed
SMILES: CC[C@H](C)[C@H](NC(=O)[C@H](C)NC(=O)CNC(=O)[C@H](Cc1ccccc1)NC(=O)[C@H](CC(N)=O)NC(=O)[C@@H]1CCCN1C(=O)[C@H](CO)NC(=O)[C@H](CO)NC(=O)[C@H](Cc1c[nH]cn1)NC(=O)[C@H](CCCNC(=N)N)NC(=O)[C@H](CC(C)C)NC(=O)[C@H](Cc1ccccc1)NC(=O)[C@H](CC(N)=O)NC(=O)[C@H](C)NC(=O)[C@H](CC(C)C)NC(=O)[C@H](CCCNC(=N)N)NC(=O)[C@H](CCC(N)=O)NC(=O)[C@@H](NC(=O)[C@H](C)NC(=O)[C@@H]1CSSC[C@H](NC(=O)[C@@H](N)CCCCNC(=O)COCCOCCNC(=O)CCCCCCCCCCCCCCCCCCC(=O)O)C(=O)N[C@@H](CC(N)=O)C(=O)N[C@@H]([C@@H](C)O)C(=O)N[C@@H](C)C(=O)N[C@@H]([C@@H](C)O)C(=O)N1)[C@@H](C)O)C(=O)N1CCC[C@H]1C(=O)N[C@@H](CO)C(=O)N[C@@H](CO)C(=O)N[C@H](C(=O)N[C@@H](CC(N)=O)C(=O)N[C@H](C(=O)NCC(=O)N[C@@H](CO)C(=O)N[C@@H](CC(N)=O)C(=O)N[C@H](C(=O)N[C@@H](Cc1ccc(O)cc1)C(N)=O)[C@@H](C)O)C(C)C)[C@@H](C)O
notes: Analogue of human amylin; also called compound 43

- Ratio hCT/hAmylin binding [1]: 2.2
B3: N^α1-[(4S)-4-carboxy-4-[[(4S)-4-carboxy-4-(19-carboxynonadecanoylamino)butanoyl]amino]butanoyl]-[Glu14,Arg17,Pro21,Pro27,Pro37]-h-amylin (peptide)
peptide: {C20 diacid-γGlu-γGlu}-KCNTATCATQRLAEFLRHSSPNFGAIPSSTNVGSNTP-NH2
modifications: disulfide 2-7
SMILES: CC[C@H](C)[C@H](NC(=O)[C@H](C)NC(=O)CNC(=O)[C@H](Cc1ccccc1)NC(=O)[C@H](CC(N)=O)NC(=O)[C@@H]1CCCN1C(=O)[C@H](CO)NC(=O)[C@H](CO)NC(=O)[C@H](Cc1c[nH]cn1)NC(=O)[C@H](CCCNC(=N)N)NC(=O)[C@H](CC(C)C)NC(=O)[C@H](Cc1ccccc1)NC(=O)[C@H](CCC(=O)O)NC(=O)[C@H](C)NC(=O)[C@H](CC(C)C)NC(=O)[C@H](CCCNC(=N)N)NC(=O)[C@H](CCC(N)=O)NC(=O)[C@@H](NC(=O)[C@H](C)NC(=O)[C@@H]1CSSC[C@H](NC(=O)[C@H](CCCCN)NC(=O)CC[C@H](NC(=O)CC[C@H](NC(=O)CCCCCCCCCCCCCCCCCCC(=O)O)C(=O)O)C(=O)O)C(=O)N[C@@H](CC(N)=O)C(=O)N[C@@H]([C@@H](C)O)C(=O)N[C@@H](C)C(=O)N[C@@H]([C@@H](C)O)C(=O)N1)[C@@H](C)O)C(=O)N1CCC[C@H]1C(=O)N[C@@H](CO)C(=O)N[C@@H](CO)C(=O)N[C@H](C(=O)N[C@@H](CC(N)=O)C(=O)N[C@H](C(=O)NCC(=O)N[C@@H](CO)C(=O)N[C@@H](CC(N)=O)C(=O)N[C@H](C(=O)N1CCC[C@H]1C(N)=O)[C@@H](C)O)C(C)C)[C@@H](C)O
notes: Derivative of human amylin; also called compound 14

- Ratio hCT/hAmylin binding [1]: 1.2
B4: N^ε1-[(4S)-4-carboxy-4-[[(4S)-4-carboxy-4-(19-carboxynonadecanoylamino)butanoyl]amino]butanoyl]-[Glu14,Arg17,Pro21,Pro27,Pro37]-h-amylin (peptide)
peptide: K([γGlu-γGlu-C20 diacid])CNTATCATQRLAEFLRHSSPNFGAIPSSTNVGSNTP-NH2
modifications: disulfide 2-7 (inferred)
notes: Derivative of human amylin; also called compound 13
